Assay [1] addresses AP-7-168-stabilized β2AR dimer (construct PN1) (UniProt P07550). Briefly: BLI. A general note: In BLI a coated tip is dipped into the sample, and binding shifts an interference pattern.
Assay [2] concerns the target β2-adrenergic receptor (β2AR), construct PN1, monomeric (UniProt P07550). Briefly: BLI.

A word on the Kd: it is a measure of binding affinity in units of concentration. Read a low Kd as higher affinity. As to “heterotrimeric Gs (Gαsβ1γ2) (from UniProt P63092;P62873;P59768) (complex)”, the values for the Kd in assay [1] and in assay [2] were 3.11 µM and 1.71 µM, respectively.

The values above are taken from publication PMC13645619.
